Kd data for one substance are collected here from patent US20220050116A1.

The assay has as its target synthetic collagen peptides. In words: ELISA-like assay: biotin-labeled peptides titrated on plate-immobilized D-CHP, 4-parameter Hill fit.

As usually defined, the Kd is the constant that tells how readily two partners part at equilibrium. The low end stands for higher affinity, the high end for lower affinity. Take “D-CHP, dimeric collagen hybridizing peptide [Ac-(GPO)6-G3]2-K-GK (designed binder)”: the Kd was in the range of 10 to 270 nM.
